Measured values from patent US20260062495A1 (TG THERAPEUTICS, published 2026).

How the values were obtained:
[1] = molecular target: T1, C1q (complement component 1q) (UniProt P02745 23-245; P02746 28-253; P02747 29-245); test: C1q ELISA, 4-parameter logistic fit; % potency relative to reference standard; TG-1101 from 10 L culture at post-shift pH 6.85 +/- 0.05
Experimental: (§1) The binding of anti-CD20 antibody to C1q is evaluated using a C1q ELISA-based method. The dose-response binding is modeled by weighted nonlinear regression using a 4-parameter logistic fit, and the results are reported as % potency relative to the reference standard.
(§2) Purified antibody (TG-1101) from each of the 10 L bioreactor cultures was also tested in various binding assays (CD20 antigen, Fc gamma receptor, complement component 1q), as well as Fc effector activity assays (ADCC, CDC).

[2] = molecular target: T2, FcγRIIIa-158V (Fc gamma receptor 3a, higher affinity allele) (UniProt P08637 17-208); test: SPR, Fc receptor immobilised on chip, antibody injected; 1:1 Langmuir fit; % potency relative to reference standard; TG-1101 from 10 L culture at post-shift pH 6.80 +/- 0.03
T2 construct: Immobilised directly on the SPR chip; also called Fc receptor
T2 sequence (P08637 17-208 F176V): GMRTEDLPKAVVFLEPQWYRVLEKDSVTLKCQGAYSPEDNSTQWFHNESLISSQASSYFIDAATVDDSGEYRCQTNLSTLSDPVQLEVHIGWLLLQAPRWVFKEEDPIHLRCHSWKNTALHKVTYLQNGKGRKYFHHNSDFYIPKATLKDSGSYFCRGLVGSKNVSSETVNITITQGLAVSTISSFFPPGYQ
Experimental: (§3) The binding of anti-CD20 antibody samples to FcγRIIIa is evaluated by surface plasmon resonance (SPR). The method follows a direct binding assay methodology where the Fc receptor (ligand) is directly immobilized onto the appropriate flow cell on a sensor chip surface and the analyte is injected over the chip to assess binding. The high affinity allele of FcγRIIIa (158V) is determined.
(§4) The equilibrium dissociation constants (KD) and the relative affinities of each sample relative to the reference standard is determined for each receptor. The rates of change of the SPR signal is analyzed using a 1:1 Langmuir model to yield apparent rate constants for the association and dissociation phases of the reaction, and equilibrium dissociation constants. Results are reported as % potency relative to the reference standard for the FcγRIIIa-158V variant.
as §2

[3] = molecular target: T2, FcγRIIIa-158V (Fc gamma receptor 3a, …); test: SPR, Fc receptor immobilised on chip, antibody injected; 1:1 Langmuir fit; % potency relative to reference standard; TG-1101 from 10 L culture at post-shift pH 6.70 +/- 0.10
Experimental: as §3, §4, §2

[4] = molecular target: T2, FcγRIIIa-158V (Fc gamma receptor 3a, …); test: SPR, Fc receptor immobilised on chip, antibody injected; 1:1 Langmuir fit; % potency relative to reference standard; TG-1101 from 10 L culture at post-shift pH 6.85 +/- 0.05
Experimental: as §3, §4, §2

[5] = molecular target: T3, CD20 on the CD20 expressing human mantle cell lymphoma cell line Jeko-1 (human, UniProt P11836 1-297); test: Cell-based binding to Jeko-1 cells, Meso Scale Discovery electrochemiluminescence, 4PL; % potency relative to reference standard; TG-1101 from 10 L culture at post-shift pH 6.85 +/- 0.05
T3 construct: whole, on cells; The target is presented on Jeko-1 cells; also called CD20 antigen
T3 sequence (looked up): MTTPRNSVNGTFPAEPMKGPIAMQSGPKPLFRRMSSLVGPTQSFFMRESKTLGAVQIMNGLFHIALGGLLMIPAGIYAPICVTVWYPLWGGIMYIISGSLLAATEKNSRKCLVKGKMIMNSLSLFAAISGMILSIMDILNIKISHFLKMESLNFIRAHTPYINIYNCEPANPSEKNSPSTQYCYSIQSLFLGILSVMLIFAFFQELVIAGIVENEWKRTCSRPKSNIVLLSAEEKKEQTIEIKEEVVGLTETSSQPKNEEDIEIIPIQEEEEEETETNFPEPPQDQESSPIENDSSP
Experimental: (§5) In the CD20 binding activity assay, the binding of anti-CD20 antibody to the CD20 expressing human mantle cell lymphoma cell line, Jeko-1, is evaluated using the Meso Scale Discovery (MSD) method. Dose response curves are modeled using 4PL equation, and results are reported as % potency relative to the reference standard.
as §2

[6] = molecular target: T3, CD20 on the CD20 expressing human …; test: Cell-based binding to Jeko-1 cells, Meso Scale Discovery electrochemiluminescence, 4PL; % potency relative to reference standard; TG-1101 from 10 L culture at post-shift pH 6.70 +/- 0.10
Experimental: as §5, §2

[7] = molecular target: T1, C1q (complement component 1q); test: C1q ELISA, 4-parameter logistic fit; % potency relative to reference standard; TG-1101 from 10 L culture at post-shift pH 6.70 +/- 0.10
Experimental: as §1, §2

[8] = molecular target: T1, C1q (complement component 1q); test: C1q ELISA, 4-parameter logistic fit; % potency relative to reference standard; TG-1101 from 10 L culture at post-shift pH 6.80 +/- 0.03
Experimental: as §1, §2

[9] = molecular target: T1, C1q (complement component 1q); test: C1q ELISA, 4-parameter logistic fit; % potency relative to reference standard; TG-1101 from 10 L culture at post-shift pH 6.95 +/- 0.05
Experimental: as §1, §2

[10] = molecular target: T2, FcγRIIIa-158V (Fc gamma receptor 3a, …); test: SPR, Fc receptor immobilised on chip, antibody injected; 1:1 Langmuir fit; % potency relative to reference standard; TG-1101 from 10 L culture at post-shift pH 6.95 +/- 0.05
Experimental: as §3, §4, §2

[11] = molecular target: T3, CD20 on the CD20 expressing human …; test: Cell-based binding to Jeko-1 cells, Meso Scale Discovery electrochemiluminescence, 4PL; % potency relative to reference standard; TG-1101 from 10 L culture at post-shift pH 6.95 +/- 0.05
Experimental: as §5, §2

[12] = molecular target: T3, CD20 on the CD20 expressing human …; test: Cell-based binding to Jeko-1 cells, Meso Scale Discovery electrochemiluminescence, 4PL; % potency relative to reference standard; TG-1101 from 10 L culture at post-shift pH 6.80 +/- 0.03
Experimental: as §5, §2

T1 sequence (P02745 23-245, chain 1 of 3): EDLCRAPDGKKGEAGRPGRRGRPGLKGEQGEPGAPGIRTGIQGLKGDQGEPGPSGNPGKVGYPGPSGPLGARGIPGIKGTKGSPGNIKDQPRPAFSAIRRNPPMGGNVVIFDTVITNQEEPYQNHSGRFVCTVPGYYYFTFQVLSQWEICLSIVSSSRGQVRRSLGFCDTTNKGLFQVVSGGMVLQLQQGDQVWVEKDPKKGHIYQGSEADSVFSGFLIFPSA
T1 sequence (P02746 28-253, chain 2 of 3): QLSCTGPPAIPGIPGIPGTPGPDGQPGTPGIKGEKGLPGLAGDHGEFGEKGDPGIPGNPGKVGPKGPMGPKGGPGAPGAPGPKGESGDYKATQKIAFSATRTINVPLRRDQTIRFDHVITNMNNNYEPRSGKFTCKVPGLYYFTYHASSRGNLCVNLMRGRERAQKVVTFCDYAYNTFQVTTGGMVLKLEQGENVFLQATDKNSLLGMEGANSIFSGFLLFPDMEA
T1 sequence (P02747 29-245, chain 3 of 3): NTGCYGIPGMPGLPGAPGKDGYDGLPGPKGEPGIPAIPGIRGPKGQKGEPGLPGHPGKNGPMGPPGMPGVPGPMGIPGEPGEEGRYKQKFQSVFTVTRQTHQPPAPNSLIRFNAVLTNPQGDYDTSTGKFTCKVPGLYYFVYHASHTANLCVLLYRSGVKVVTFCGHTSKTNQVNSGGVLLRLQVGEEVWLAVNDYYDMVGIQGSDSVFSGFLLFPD

C1q binding (%) relative to the reference standard [1]: 81.2%
FcγRIIIa-158V binding (%) relative to the reference standard [2]: 98.2%
FcγRIIIa-158V binding (%) relative to the reference standard [3]: 120%
FcγRIIIa-158V binding (%) relative to the reference standard [4]: 108%
CD20 binding (%) relative to the reference standard [5]: 89.5%
CD20 binding (%) relative to the reference standard [6]: 116%
C1q binding (%) relative to the reference standard [7]: 86.6%
C1q binding (%) relative to the reference standard [8]: 84.5%
C1q binding (%) relative to the reference standard [9]: 76.5%
FcγRIIIa-158V binding (%) relative to the reference standard [10]: 109%
CD20 binding (%) relative to the reference standard [11]: 110%
CD20 binding (%) relative to the reference standard [12]: 96.8%
B1: TG-1101 (anti-CD20 IgG1 monoclonal antibody expressed in YB2/0 rat hybridoma cells) (antibody)
heavy: not shown
light: QIVLSQSPAILSASPGEKVTMTCRASSSVSYMHWYQQKPGSSPKPWIYATSNLASGVPARFSGSGSGTSYSFTISRVEAEDAATYYCQQWTFNPPTFGGGTRLEIKRTVAAPSVFIFPPSDEQLKSGTASVVCLLNNFYPREAKVQWKVDNALQSGNSQESVTEQDSKDSTYSLSSTLTLSKADYEKHKVYACEVTHQGLSSPVTKSFNRGEC
modifications: N-linked glycans with low fucosylation (18.4-27.5 % fucosylation in the 10 L cultures of Table 7)
notes: also called ublituximab; UBX
